# Assay results taken from the supplement of paper PMC11780869.
# Tested on: Bacillus subtilis
# Assay: cleaved RNA product abundance (RNA/gDNA barcode ratio) relative to median wild-type variant (ratio to wild type); higher = more accumulation of the downstream cleavage product
# Procedure, shortened: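 Truncated aprE or tetM reporter mRNAs with barcoded RNase Y cleavage-site windows, mutagenized from oligos at a 9% error rate, sat in the B. subtilis chromosome. Cells grew in LB at 37°C from OD600 0.0003 to 0.3. Gel-selected cleaved RNA was reverse transcribed and its barcodes sequenced with those from genomic DNA, collapsing by UMI. Cleaved product abundance equals the RNA:gDNA barcode ratio per construct over the median construct with the unmutated site.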
# [1] = experiment (reporter, strain, medium): exp 2b: truncated aprE reporter, strain BJT200, cleavage site: cggR-gapA (positions -7 to +36 mutated)
# [2] = experiment (reporter, strain, medium): exp 8a: truncated aprE reporter, strain BJT201 with 2% xylose (RNase J1 expressed), cleavage site: glnRA (positions -5 to +31 mutated)
# [3] = experiment (reporter, strain, medium): exp 4a: truncated aprE reporter, strain BJT201 with 2% xylose (RNase J1 expressed), cleavage site: cggR-gapA (positions -7 to +36 mutated)
# [4] = experiment (reporter, strain, medium): exp 6: tetM reporter, strain 168, cleavage site: cggR-gapA (positions -7 to +36 mutated)
Sequence,cleaved RNA product abundance [1],cleaved RNA product abundance [2],cleaved RNA product abundance [3],other results
ACAGACGAAGGAGCCGCAAAGAAGTTATTCAGGGATGATTAATCCCTCAATATAAATATCTCTCACTTATTTAAA,0.532,,,
CGACATGTCCCGCTTCTTTCATTAATCCCTTATCAACTGTTTTGCTATATACATTTACCTTTTAAGAGGAGGAAT,,0.249,,
CGACATGTCCCGCTTCTTTCATTAATCCGTTAGCAACTGTTTTGCTATTTACACTTACCTTTTAAGAGGAGGAAT,,0.12,,
CGACATGTCCCGCTTCTTTCATTAATCCGTTAGCAACTGTTTTACTAAATACATTTACCTTTTAAGAGGAGGAAT,,0.499,,
CGACATGTCCCGCTTCTTTCATTAATCCGTAAGCATCTGTTTTGCTATATACATTTACCTTTTAAGAGGAGGAAT,,0.322,,
ACAGACGAAGGAGCCGCAAAGAATTTATTAAGGGATGAATTATCCCTCAATATAAATATCTCTCACTTATTTAAA,0.531,,0.268,
CGACATGTCCCGCTTCTTTCATTATTCCGTTAGCAACTGTTTTGCTATATACATTCACCTTTTAAGAGGAGGAAT,,1.3,,
ACAGACGAAGGAGCCGCTAAGAAGTTATTAAGGAATGAATAATCCCTCAATATAAATATCTCTCACTTATTTAAA,,,0.0845,
ACAGACGAAGGAGCCGCAAAGAAGTTATTAAGGGATGAATAATCCCTCCATATAAATATCTCTCACTTATTTAAA,0.243,,0.341,cleaved RNA product abundance [4]: 0.34
ACAGACGAAGGAGCCGCCAAGAAGTTATTAAGGGATTAATAATCCCTCAATATAAATATCTCTCACTTATTTAAA,,,0.726,
CGACATGTCCCGCTTCTTTCATTAATCCGTTAGCAACTGTTTTCCTATATACATTTACCTTTTAAGAGGAGGAAT,,0.539,,
ACAGACGAAGGAGCCGCAAAGAAGTTATTAAGCGATGAATAATCCCTCAAAATAAATATCTCTCACTTATTTAAA,0.0793,,0.108,
ACAGACGAAGGAGCCGCAAAGAAGTTATTAAGGGATGAATAATCCCGCAATATAGATATCTCTCACTTATTTAAA,,,0.279,
ACAGACGAAGGAGCCGCAAAGAAGTTATCAAGGGATGAATTATCCCTCAATATAAATATCTCTCACTTATTTAAA,,,0.25,
ACAGACGAAGGAGCCGCAAAGAAGTTATTAAGGGAGAAATAATCCCTCAATATAAATATCTCTCACTTATTTAAA,,,0.795,
ACAGACGAAGGAGCCGCAAAGAAGATATTAAGGGATGAATAATTCCTCAATATAAATATCTCTCACTTATTTAAA,,,1.05,
ACAGACGAAGGAGCCGCAAATAAGTTATTAAGGGATGAATAATCCCTCAATATAATTATCTCTCACTTATTTAAA,0.515,,0.477,
ACAGACGAAGGAGCCGCAAACAAGTTATTAAGGGATAAATAATCCCTCAATATAAATATCTCTCACTTATTTAAA,,,0.649,
CGACATGTCCCGCTTCTTTCATTAATCCGTTAGCAACTGTTTTGCTATATACATTTCCCATTTAAGAGGAGGAAT,,1.11,,
CGACATGTCCCGCTTCTTTCATTAATCCGTTAGCAACTGTTTTTGTATATACATTTACCTTTTAAGAGGAGGAAT,,0.494,,

Sequence,cleaved RNA product abundance [1],cleaved RNA product abundance [2],cleaved RNA product abundance [3],other results
ACAGACGAAGGAGCCGCAAAGAAGTTATTAAGGGATGAATAATGCCTCTATATAAATATCTCTCACTTATTTAAA,0.111,,,
CGACATGTCCCGCTTCTTTCATTAATCCGTTCGCAACTGTTATGCTATATACATTTACCTTTTAAGAGGAGGAAT,,0.349,,
ACAGACGAAGGAGCCGCAAAGAAGTTATTAAGGGATAAATAATCCCTCCATATAAATATCTCTCACTTATTTAAA,0.26,,0.234,
CGACATGTCCCGCTTCTTTCATTAATCCGTTAGCTACTGTTATGCTATATACATTTACCTTTTAAGAGGAGGAAT,,0.786,,
ACAGACGAAGGAGCCGCAAAGAAGTTATTAAGGGATGAATAATCCCTTAATATACATATCTCTCACTTATTTAAA,,,0.232,
CGACATGTCCCGCTTCTTTCATTAATCCGTTAGCAATTGTGTTGCTATATACATTTACCTTTTAAGAGGAGGAAT,,0.947,,
ACAGACGAAGGAGCCGCAAAAAAGTTATTAAGGGATAAATAATCCCTCAATATAAATATCTCTCACTTATTTAAA,0.8,,0.86,
ACAGACGAAGGAGCCGCAAAGAAGATATTAAGGGATGAATAATCGCTCAATATAAATATCTCTCACTTATTTAAA,,,0.228,
ACAGACGAAGGAGCCGCAAAGAAGTTATTTAGGGATGAATAATCTCTCAATATAAATATCTCTCACTTATTTAAA,,,0.646,
ACAGACGAAGGAGCCGCAAAGAAGTAATTAAGGGATGAATAATCCCTCAATATAAATATCTCTCACTTATTTAAA,0.241,,0.333,cleaved RNA product abundance [4]: 0.32
CGACATGTCCCGCTTCTTTCATTAATCTGTTATCAATTGTTTTGCTATATACATTTACCTTTTAAGAGGAGGAAT,,0.383,,
ACAGACGAAGGAGCCGCAAAGAAGTTATTAAGGGATGAATTATTCCTCAATATAAATATCTCTCACTTATTTAAA,,,0.215,
ACAGACGAAGGAGCCGCAAAGCAGTTATTAAGGGATGAATAATCGCTCAATATAAATATCTCTCACTTATTTAAA,0.083,,,
ACAGACGAAGGAGCCGCATAGAAGTTATTAAGCGATGAATAATCCCTCAATATAAATATCTCTCACTTATTTAAA,,,0.122,
ACAGACGAAGGAGCCGCAAAGAAGTTATTAAGGCAGGAATAATCCCTCAATATAAATATCTCTCACTTATTTAAA,0.102,,0.167,
ACAGACGAAGGAGCCGCAATGAAGTTATTATGGGATGAATAATCCCTCAATATAAATATCTCTCACTTATTTAAA,,,0.464,
ACAGACGAAGGAGCCGCAAAGAAGTTATTAATGGATGAATAATCCCTCACTATAAATATCTCTCACTTATTTAAA,0.0821,,,
ACAGACGAAGGAGCCGCAAAGAAGTTATTAAGGGATGTATAATTCCTCAATATAAATATCTCTCACTTATTTAAA,,,0.576,
CGACATGTCCCGCTTCTTTCATTAATCAGTTAGCTACTGTTTTGCTATATACATTTACCTTTTAAGAGGAGGAAT,,0.423,,
CGACATGTCCCGCTTCTTTCATTAATCCGTTAGTAATTGTTTTGCTATATACATTTACCTTTTAAGAGGAGGAAT,,0.362,,

Sequence,cleaved RNA product abundance [1],cleaved RNA product abundance [2],cleaved RNA product abundance [3],other results
CGACATGTCCCGCTTCTTTCATTAATCCGTTAGCAACTGTGTAGCTATATACATTTACCTTTTAAGAGGAGGAAT,,0.23,,
ACAGACGAAGGAGCCGCAAAGAAGTTATTAAAAGATGAATAATCCCTCAATATAAATATCTCTCACTTATTTAAA,0.107,,0.0921,
CGACATGTCCCGCTTCTTTCATTAATCCGTTAGCAACTGTTTTTCTATATACAATTACCTTTTAAGAGGAGGAAT,,0.846,,
CGACATGTCCCGCTTCTTTCATTAGTCCGTTAGCAACTGTTTTACTATATACATTTACCTTTTAAGAGGAGGAAT,,0.548,,
ACAGACGAAGGAGCCGCAAAGAAGTTATTAAGGGATGAATAATTCCTCAATATACATATCTCTCACTTATTTAAA,,,0.498,
ACAGACGAAGGAGCCGCAAAGAAGTTATTAAGGGATGAACAATCCCTCAATATATATATCTCTCACTTATTTAAA,,,0.441,
ACAGACGAAGGAGCCGCAAAGAAGTTATTATGGGATGAATAATCCCTGAATATAAATATCTCTCACTTATTTAAA,,,0.663,
ACAGACGAAGGAGCCGCAAAGAAGTTATTAAGCAATGAATAATCCCTCAATATAAATATCTCTCACTTATTTAAA,0.0903,,0.122,
ACAGACGAAGGAGCCGCATAGAAGTTATTAAGGGATGCATAATCCCTCAATATAAATATCTCTCACTTATTTAAA,,,0.933,
ACAGACGAAGGAGCCGCAAAGAAGTTATTAAGGGATGTATAATCCTTCAATATAAATATCTCTCACTTATTTAAA,,,0.922,
CGACATGTCCCGCTTCTTTCATTAATCCGTTAGCTGCTGTTTTGCTATATACATTTACCTTTTAAGAGGAGGAAT,,0.658,,
ACAGACGAAGGAGCCGCAAAGAAGTTATTAAGGGATATATAATCCCTCAATATAAATATCTCTCACTTATTTAAA,,,0.738,
ACAGACGAAGGAGCCGCAAAGAAGTTATTAAGGCATGAATAATCCCTCAATATTAATATCTCTCACTTATTTAAA,,,0.0489,
CGACATGTCCCGCTTCTTTCATTAATCCGATACCAACTGTTTTGCTATATACATTTACCTTTTAAGAGGAGGAAT,,0.304,,
ACAGACGAAGGAGCCGCAAAGAAGTTATTAAGGGATGAATAATCACTCAATATAAATATCTCTCACTTATTTAAA,0.111,,0.14,cleaved RNA product abundance [4]: 0.0875
CGACATGTCCCGCTTCTTTCATTATTCCGTTAGCAACTGTTTTGCTATATAGATTTACCTTTTAAGAGGAGGAAT,,1.02,,
ACAGACGAAGGAGCCGCAAAGAAGTTATTAAGGGATGAATAATCCTTCAATATACATATCTCTCACTTATTTAAA,0.334,,0.785,
ACAGACGAAGGAGCCGCAAAGAAGTTATCAAGAGATGAATAATCCCTCAATATAAATATCTCTCACTTATTTAAA,0.0893,,0.116,
CGACATGTCCCGCTTCTTTCATTACTCCGTTAGCAACTGTTTTGCTATATACTTTTACCTTTTAAGAGGAGGAAT,,0.592,,
ACAGACGAAGGAGCCGCAAAGAAGTTATTAAGGGATTAATAATCCCTCAATATAAATATCTCTCACTTATTTAAA,0.996,,0.958,cleaved RNA product abundance [4]: 1.09
